The text below walks through data of PMC9975944 (The EMBO Journal, 2023).

The assay has as its target T1, GFP-SOX7 (UniProt Q9BT81 1-388).
T1 sequence: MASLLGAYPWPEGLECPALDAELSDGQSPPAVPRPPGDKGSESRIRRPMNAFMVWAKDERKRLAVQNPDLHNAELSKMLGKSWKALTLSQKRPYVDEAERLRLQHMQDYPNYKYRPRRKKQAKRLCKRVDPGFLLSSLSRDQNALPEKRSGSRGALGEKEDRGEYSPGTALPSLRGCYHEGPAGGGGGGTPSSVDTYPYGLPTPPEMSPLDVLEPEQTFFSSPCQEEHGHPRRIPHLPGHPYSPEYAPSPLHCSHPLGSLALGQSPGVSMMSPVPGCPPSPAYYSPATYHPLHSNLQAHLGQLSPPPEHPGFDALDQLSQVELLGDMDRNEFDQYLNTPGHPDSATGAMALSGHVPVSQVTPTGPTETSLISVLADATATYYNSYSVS
Put plainly: single-molecule two-colour coincidence spectroscopy.

B1: HEY1-Cherry (natural protein)
chain: MKRAHPEYSSSDSELDETIEVEKESADENGNLSSALGSMSPTTSSQILARKRRRGIIEKRRRDRINNSLSELRRLVPSAFEKQGSAKLEKAEILQMTVDHLKMLHTAGGKGYFDAHALAMDYRSLGFRECLAEVARYLSIIEGLDASDPLRVRLVSHLNNYASQREAASGAHAGLGHIPWGTVFGHHPHIAHPLLLPQNGHGNAGTTASPTEPHHQGRLGSAHPEAPALRAPPSGSLGPVLPVVTSASKLSPPLLSSVASLSAFPFSFGSFHLLSPNALSPSAPTQAANLGKPYRPWGTEIGAF
As to B1, the coincidence ratio turned out to be 0.66.
